Measurements reported in US20050037969A1.

Target: GST-DLG1 fusion protein (PDZ domains 1-2) (human) (UniProt Q12959)
Assay: variant of the G assay, 100 uM 8-mer against 20 uM biotin-labeled AA2L

Substance: eight amino acid CLASP-2 peptide MTSSSSVV (unlabeled)
- percent inhibition at 100 uM: > 50%
